B1: HIV-1 Nef SMRwt peptide (peptide)
peptide: VGFPVAAVGFPVDYKDDDDK
notes: Synthetic peptide with two SMR motifs and a C-terminal FLAG tag; also called SMRwt (wide-type) peptide; antagonist peptide
B2: HIV-1 Nef SMRmut peptide (peptide)
peptide: AGFPVAAAGFPVDYKDDDDK
notes: Synthetic negative control peptide; the first valine of each VGFPV motif is changed to alanine; also called SMRmut (mutant) peptide; negative control peptide

Assays:
[1] = molecular target: T1, Mortalin (UniProt P38646 47-679); assay: immunoprecipitation from Jurkat lysate, Western blot with anti-mortalin antibody
T1 construct: Endogenous protein pulled down from Jurkat cell lysate (a human T cell line); also called Glucose-regulated protein 75 (GRP75)
T1 sequence (P38646 47-679 limits assumed): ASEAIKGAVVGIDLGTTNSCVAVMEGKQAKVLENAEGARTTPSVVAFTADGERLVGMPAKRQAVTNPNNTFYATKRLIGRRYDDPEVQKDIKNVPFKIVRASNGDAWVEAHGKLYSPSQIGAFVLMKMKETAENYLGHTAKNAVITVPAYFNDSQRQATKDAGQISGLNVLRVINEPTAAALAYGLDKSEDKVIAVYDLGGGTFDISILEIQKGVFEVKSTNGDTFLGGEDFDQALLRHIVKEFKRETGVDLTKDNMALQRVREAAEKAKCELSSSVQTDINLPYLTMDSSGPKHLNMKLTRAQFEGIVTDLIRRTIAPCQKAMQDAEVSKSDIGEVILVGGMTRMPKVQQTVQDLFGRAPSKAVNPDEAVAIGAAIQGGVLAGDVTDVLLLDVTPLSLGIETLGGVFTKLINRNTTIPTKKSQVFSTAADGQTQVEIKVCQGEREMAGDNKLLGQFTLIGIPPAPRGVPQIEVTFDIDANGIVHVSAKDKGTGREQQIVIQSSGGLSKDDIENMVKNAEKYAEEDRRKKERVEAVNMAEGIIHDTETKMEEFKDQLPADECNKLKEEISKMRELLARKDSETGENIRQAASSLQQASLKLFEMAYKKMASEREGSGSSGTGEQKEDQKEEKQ

[2] = molecular target: T2, E. coli DnaK protein (Escherichia coli, UniProt P0A6Y8 2-638); assay: ANTI-FLAG M2 immunoprecipitation from E. coli lysate, Western blot with anti-DnaK antibody
T2 construct: Endogenous protein in E. coli lysate; also called heat shock protein 70 (Hsp70)
T2 sequence (P0A6Y8 2-638 limits assumed): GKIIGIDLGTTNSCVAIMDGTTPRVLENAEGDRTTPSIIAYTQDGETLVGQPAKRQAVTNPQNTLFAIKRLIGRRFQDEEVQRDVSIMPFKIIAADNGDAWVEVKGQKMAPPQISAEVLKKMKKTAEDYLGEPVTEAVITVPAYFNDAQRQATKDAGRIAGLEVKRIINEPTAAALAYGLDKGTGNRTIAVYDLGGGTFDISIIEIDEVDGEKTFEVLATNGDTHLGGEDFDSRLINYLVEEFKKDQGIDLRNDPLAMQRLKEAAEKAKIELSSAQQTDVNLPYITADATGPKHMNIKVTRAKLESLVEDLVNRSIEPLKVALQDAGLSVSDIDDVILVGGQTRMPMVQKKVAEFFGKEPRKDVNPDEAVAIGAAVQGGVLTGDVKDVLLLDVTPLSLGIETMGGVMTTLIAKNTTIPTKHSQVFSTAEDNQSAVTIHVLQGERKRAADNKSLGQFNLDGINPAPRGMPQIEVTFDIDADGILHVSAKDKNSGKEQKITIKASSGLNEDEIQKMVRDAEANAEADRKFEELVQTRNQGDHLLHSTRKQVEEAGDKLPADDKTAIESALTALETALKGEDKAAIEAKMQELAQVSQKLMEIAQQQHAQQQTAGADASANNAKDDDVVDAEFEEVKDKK

Row | Binder | binding result [1] | binding result [2]
1 | B1 | binds | binds
2 | B2 | no binding | no binding (tested: 1 µg peptide with 1 mg E. coli lysate)

From patent US20200197483A1 (MOREHOUSE SCHOOL OF MEDICINE, published 2020)
